According to US5726050:

Biological target: double-stranded RNA adenosine deaminase (dsrad, 140 kDa Z-DNA binding protein) (Gallus gallus) (UniProt A0A8V1AB28)
Experiment: competition
Details: bandshift competition

UniProt A0A8V1AB28, sequence (A0A8V1AB28 entry or part of it): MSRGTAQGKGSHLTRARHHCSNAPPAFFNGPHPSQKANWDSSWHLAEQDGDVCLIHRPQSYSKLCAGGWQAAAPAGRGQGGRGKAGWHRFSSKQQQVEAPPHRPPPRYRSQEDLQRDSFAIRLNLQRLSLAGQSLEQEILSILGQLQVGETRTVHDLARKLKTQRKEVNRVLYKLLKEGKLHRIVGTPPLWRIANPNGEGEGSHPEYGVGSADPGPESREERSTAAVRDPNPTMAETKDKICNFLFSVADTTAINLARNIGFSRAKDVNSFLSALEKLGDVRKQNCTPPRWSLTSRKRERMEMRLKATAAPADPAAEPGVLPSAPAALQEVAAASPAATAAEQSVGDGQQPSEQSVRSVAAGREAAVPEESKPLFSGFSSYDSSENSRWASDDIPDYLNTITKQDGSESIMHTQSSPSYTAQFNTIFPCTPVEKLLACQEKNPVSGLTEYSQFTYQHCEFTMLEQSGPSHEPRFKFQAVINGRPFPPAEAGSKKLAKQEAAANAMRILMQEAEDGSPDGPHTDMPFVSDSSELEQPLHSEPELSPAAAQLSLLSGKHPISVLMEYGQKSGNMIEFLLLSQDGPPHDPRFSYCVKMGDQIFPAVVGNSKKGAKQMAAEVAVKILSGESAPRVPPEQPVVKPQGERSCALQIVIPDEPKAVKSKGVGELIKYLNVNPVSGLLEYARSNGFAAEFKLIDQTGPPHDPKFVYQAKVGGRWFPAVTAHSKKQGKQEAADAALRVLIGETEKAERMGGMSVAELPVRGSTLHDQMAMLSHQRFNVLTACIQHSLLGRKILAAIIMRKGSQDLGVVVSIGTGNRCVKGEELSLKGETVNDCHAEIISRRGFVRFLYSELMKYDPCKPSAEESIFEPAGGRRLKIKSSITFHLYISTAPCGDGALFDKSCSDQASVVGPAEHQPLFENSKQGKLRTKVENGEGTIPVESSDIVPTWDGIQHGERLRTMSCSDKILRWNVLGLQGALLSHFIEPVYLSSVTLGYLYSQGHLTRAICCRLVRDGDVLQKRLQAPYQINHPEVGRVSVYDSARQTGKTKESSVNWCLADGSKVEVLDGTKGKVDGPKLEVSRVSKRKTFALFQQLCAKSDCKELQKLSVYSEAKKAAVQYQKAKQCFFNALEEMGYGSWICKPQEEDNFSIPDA

Substance | binding signal (reference, bacterial superhelical density) | binding signal (fold weaker than supercoiled) (relaxed with calf thymus topoisomerase I)
pDHg16 supercoiled plasmid with d(CG)13 insert | 1 fold | 
pDHg16 relaxed by topoisomerase I |  | 100
